The chains are these.
T1: MBP-fused PDZ domain of SNTG2 (human, UniProt Q9NY99 73-156)
T1 sequence (looked up): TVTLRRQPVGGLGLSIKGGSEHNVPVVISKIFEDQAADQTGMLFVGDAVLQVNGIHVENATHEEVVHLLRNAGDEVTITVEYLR

T2: MBP-fused PDZ domain of SNTB1 (human, UniProt Q13884 112-195)
T2 sequence (looked up): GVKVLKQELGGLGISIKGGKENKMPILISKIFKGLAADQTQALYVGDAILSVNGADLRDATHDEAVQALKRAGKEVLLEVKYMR

T3: MBP-fused PDZ domain of MAST2 (human, UniProt Q6P0Q8 1104-1192)
T3 sequence (looked up): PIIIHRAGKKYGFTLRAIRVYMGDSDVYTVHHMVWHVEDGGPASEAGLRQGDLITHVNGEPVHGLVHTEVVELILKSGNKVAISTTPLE

T4: MBP-fused PDZ domain of MAST1 (human, UniProt Q9Y2H9 967-1055)
T4 sequence (looked up): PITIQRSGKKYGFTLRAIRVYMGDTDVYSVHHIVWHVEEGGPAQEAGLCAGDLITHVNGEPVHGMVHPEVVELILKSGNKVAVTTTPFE

T5: MBP-fused PDZ domain 3 of PDZD7 (human, UniProt Q9H5P4 862-934)
T5 sequence (looked up): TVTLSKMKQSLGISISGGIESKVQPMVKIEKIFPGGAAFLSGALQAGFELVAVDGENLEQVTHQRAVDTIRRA

B1: MBP-fused PDZ domain 1 of PDZRN4 (domain or fragment, human, UniProt Q6ZMN7 224-314, looked up)
chain: TIVLERENDTLGFNIIGGRPNQNNQEGTSTEGIYVSKILENGPADRADGLEIHDKIMEVNGKDLSKATHEEAVEAFRNAKEPIVVQVLRRT
B2: RSK1 683-735 peptide, phosphorylated (peptide, UniProt Q15418 683-735, looked up)
peptide: QSQLSHQDLQLVKGAMAATYSALNSSKPTPQLKPIESSILAQRRVRKLPSTTL
modifications: also: monophosphorylated, site not given here
B3: biotinylated RSK1 725-735 peptide, phosphorylated at Ser732 (position -3) (peptide, UniProt Q15418 725-735, looked up)
peptide: {Biotin-TTDS}-RRVRKLP[pS]TTL
B4: PDZ domain 2 of MAGI3 (domain or fragment, human, UniProt Q5TCQ9 410-492, looked up)
chain: RASLKKSTMGFGFTIIGGDRPDEFLQVKNVLKDGPAAQDGKIAPGDVIVDINGNCVLGHTHADVVQMFQLVPVNQYVNLTLCR
B5: biotinylated RSK1 725-735 peptide, unphosphorylated (peptide, UniProt Q15418 725-735, looked up)
peptide: {Biotin-TTDS}-RRVRKLPSTTL
B6: MBP-fused PDZ domain 1 of PARD3B (domain or fragment, human, UniProt Q8TEW8 201-289, looked up)
chain: TRTVEISGEGGPLGIHVVPFFSSLSGRILGLFIRGIEDNSRSKREGLFHENECIVKINNVDLVDKTFAQAQDVFRQAMKSPSVLLHVLP

Test [1] addresses B5. Kind of test: holdup assay.
Test [2] has as its target B3. In words: holdup assay.
In test [3] the target is T1, MBP-fused PDZ domain of SNTG2. Kind of test: fluorescence polarisation.
Test [4] deals with MBP-fused PDZ domain of HTRA1 (human, UniProt Q92743 365-467). Kind of test: fluorescence polarisation.
Test [5] deals with T2, MBP-fused PDZ domain of SNTB1. Kind of test: fluorescence polarisation. A general note: Polarisation of emitted light reports the rotation of a fluorescent probe.
The target of test [6] is T3, MBP-fused PDZ domain of MAST2. Kind of test: fluorescence polarisation.
Test [7] deals with T4, MBP-fused PDZ domain of MAST1. Kind of test: fluorescence polarisation.
Test [8] addresses MBP-fused PDZ domain 2 of GRID2IP (human, UniProt A4D2P6 279-356). In words: fluorescence polarisation.
Test [9] addresses MBP-fused PDZ domain of SNX27 (human, UniProt Q96L92 43-136). In words: fluorescence polarisation.
Test [10] addresses B6. In words: fluorescence polarisation.
For test [11], the target named is T5, MBP-fused PDZ domain 3 of PDZD7. Kind of test: fluorescence polarisation.
In the test “PDZ domain 2 of MAGI3” the target is B4. Kind of test: holdup assay.
For test [12], the target named is B1. Kind of test: holdup assay.
Test [13] deals with B6. In words: holdup assay.
For test [14], the target named is B1. Kind of test: SPR.
The target of test [15] is B6. In words: SPR. For orientation: In SPR one partner is held on a chip, and binding of the other changes the refractive index at the surface.

Where no end group is shown, it is not given here. [ ]: non-standard residue; d: D form. The star is where a group is joined. Biotin = O=C1N[C@H]2[C@H](CS[C@H]2CCCCC(=O)*)N1; TTDS = NCCCOCCOCCOCCCNC(=O)CCC(=O)*; pS = N[C@@H](COP(=O)(O)O)C(=O)O

Sequence of MBP-fused PDZ domain of HTRA1 (Q92743 365-467): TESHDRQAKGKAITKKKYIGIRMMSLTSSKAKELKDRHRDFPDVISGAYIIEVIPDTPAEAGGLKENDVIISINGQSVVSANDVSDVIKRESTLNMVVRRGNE
Sequence of MBP-fused PDZ domain 2 of GRID2IP (A4D2P6 279-356): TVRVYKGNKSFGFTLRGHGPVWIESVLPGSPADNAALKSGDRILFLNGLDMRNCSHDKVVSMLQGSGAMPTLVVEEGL

As for B1, the BI in test [1] turned out to be 0.51 ± 0.02; in test [2], 0.54 ± 0.03.
B2: the Kd (commonly the equilibrium constant for the complex coming apart) amounted to 4.8 ± 1.7 µM in [3]; 33 ± 2 µM in test [4]; 4.5 ± 0.3 µM in test [5]; 48 ± 84 µM in test [6]; 92 ± 12 µM in test [7]; 85 ± 11 µM in [8]. In addition, the equilibrium dissociation constant (Kd) came to 32 ± 5 µM in test [9], 31 ± 3.5 µM in test [10] and 46 ± 7 µM in test [11].
On to B3, for which the Kd in the test with PDZ domain 2 of MAGI3 stood at 40.8 µM; in test [12], 12.6 µM; in test [13], 35.1 µM; in test [14], 7.1 ± 0.9 µM; in test [15], 6.1 ± 0.4 µM.
Take B4: the BI in test [1] was determined as 0.28 ± 0.03; in test [2] it was 0.28 ± 0.06.
In the case of B5, the equilibrium dissociation constant (Kd) in the test with PDZ domain 2 of MAGI3 was 40.8 µM; in test [12], 14.4 µM; in [13], 13.8 µM; in test [14], 0.97 ± 0.18 µM; in [15], 4 ± 0.3 µM.
Turning to B6, the values for the BI in test [1] and in [2] were 0.52 ± 0.05 and 0.31 ± 0.02, respectively.

Source of the values: publication PMC6424611 (Journal of molecular biology, 2019).
